Experimental data reported in the DeepSol protein solubility set.

Test: soluble on expression in E. coli; label from the status in PepcDB or PDB records

Row | Sequence | soluble on expression in E. coli
1 | MAHHHHHHMMSTASKILAILREAMRKRSLSALIIPSSDPHNSEYVKDEYKCRAYITNFKGSAGTCLITMNEAYLWTDGRYWLEASQSLYPEWTLMKDGHPDVPRLENWIQLNLGSDVLVGMNNHLSTVAEWERRRKMFNLVSVPEMVQPLMPLVENPVSKLYARPEEFCGMRCGEKAAALMEEMERQKCDALVLSALDEVAWLTNLRGSDVPFNPVFYAYGVVRCCSPPKVHLFVDAVMSEEQGPSLELHPYTALESYLRTIPAGTTFLVDEYQTSQWLFTLLESLGMRIKGVACGPAQKLKAVKNAVEIEGFRRCHVRDGVALTRYLAWLHDTVAVKGDTSVTEYSAAQRLEDFRREGEHFVQLSFSTISSVGPNAAIVHYVAPREGSATIVPDQLYLVDSGAQYLDGTTDVTRTVCFREPGDKEREAYTLVLKGNLALHSAVWPTGTSGHSLDVLARAALWKCGLNYAHGTGHGVGSFLNVHEGPQGIGLRPTPTEATLAAGMVMSNEPGYYKDGEFGIRIENLELVVDVATKHSKKGFLTFDTLTMVPLCRELIDVSALTEAERLQVNAYQQTVRETLLPHLRRCNDSCAIAYLEHHTATL | soluble
2 | MAHHHHHHMSSKKQDASAELLSELRAVIVSGGSMGTLDEQKVRSVVEKTNESYACIQSIATNPYADLTQPYYVSSVNYYRAKCLRDKRCLLTYLLWRQKQVAKAWWSVRDNLLEGSLSAAEAKYLSDYQGIMVEYMTSFDVPLDLRAYLWRPPSVRQLEVRGRCHYEFRSSVSGKTIIINIGDQLFLSFEEAEPLIQQGIVELVGH | not soluble
3 | MGSDKIHHHHHHMENKPFIFGVATSGDNFTDREKETERLLLNFQHGVNTVLISPRRWGKTSLVQKACHLAQSDKLKVVYLDIFSCRSDRDFYDAFAAAILKQTSSKLDEWLENTKLFLSRISPKISIGTDPMTDFSISLEMNPQSNDVDEILQLPEKIAQKKGYNIVVCIDEFQQIAEFKDSKTFQKRLRSVWQLQKSVSYCLFGSKKHLMNELFEKKSLPFYKFGDAIYLPKIGTCDWINYICGRFEATGKQISKELAEKICQRVDNHSSYVQQLAWLVWIHTDKVATEQNFEEAYQDIIDQNTPLFEKQTESLTTYQMNFLRAILDGVHSEFTTQEILQKYKLGSSANVSIVKRALVKKELIEIEKRKVIIPDPVMKVWLKKELGGV | not soluble
4 | MAHHHHHHMNEDAMKILNKCSGEKKKGEDLNSCNLLEYYKTKYSSIDIEKAKLILKEQFLIPDFREKQLECLNSIKRFEHVLNIMPTGGGKSLIYQVLPLIIEGISIVISPLISLIQDQIISLRNKKIVAETINSSLNKKENERILDILKSQDLGNLKVLYITPETATSGYFIDILYELYINKKISLISIDEVHCISTWGSDFRKSYRNLNKILDICPYVRTYCCTATATKFVEKDIIRNLNFYIFNKDCDNNINNNNINNNNNIHNNNKYDDHNNNCKVLNIVRTSFNRPNLKYIIIYSDLIKDEKKNSVCDIINEKRNKGKIGIIYCFKRNTCDEISKYLREKGIQALSYHAGLTNNTRKRIQQKWISGKTNILVATIAFGMGIDRKDVSFIIHYNLPKSIENYYQESGRCGRSGHISFCYLFYSKEDVEKLSYIIKTSFAHLDMHDVNIEKKYEKEIYNLECVHNLCINEKCIRSQILSYFGETYPNKNLQTNNTSDHNKQTYKNQTHVEKYNFDTANMYHPSDQNKDNLTDEHFCCSFCYDTKGSRIKIQKVINLYENKKGSNISQFYSKGETHEYNYLYTNNGKHKLYDDDTYYSPSGEEPREKRSTNYYNKYGDKYGDKYDDKYDDKYDEKYDDKYGDRKLQEGIYKLNNKKIKGYIPFQSASSIIPKQIRDKGIIEVMKELEKREEELNEKTKNDQEKHKVNKMNLFKSNSMNVKRKHVFSSFKIPRKI | not soluble
5 | MGSDKIHHHHHHASGFTLGKDILSYVAVGDSFTEGLDDPYPDSARFPQGRYRGWADRFAEHLARHVREVRYANLAVRGKLLRQILTEQLPRAVELRPDLVTLCAGGNDILRPGSDPDTLADAFEGAVRQLRDTGADVVIFTGFDTGFQPVMRHLRGKIATYNMHLRGIADRYHCRVVDLWSMKIFQDRRAWSDDRLHLSAEGHRRLALRVCEVMGVPVDEDWNAPWPQEPPAPWHQARQEDLRWARQHLVPWIHRRLTGRSSGDGVRPKRPNLEPLVRR | not soluble
6 | MSSSHSRAGQSAAGAAPGGGVDTRDAEMPATEKDLAEDAPWKKIQQNTFTRWCNEHLKCVSKRIANLQTDLSDGLRLIALLEVLSQKKMHRKHNQRPTFRQMQLENVSVALEFLDRESIKLVSIDSKAIVDGNLKLILGLIWTLILHYSISMPMWDEEEDEEAKKQTPKQRLLGWIQNKLPQLPITNFSRDWQSGRALGALVDSCAPGLCPDWDSWDASKPVTNAREAMQQADDWLGIPQVITPEEIVDPNVDEHSVMTYLSQFPKAKLKPGAPLRPK | soluble
7 | MGSHHHHHHDITSLYKKAGSAAAVLEENLYFQGSFTMRLKELGEFGLIDLIKKTLESKVIGDDTAPVEYCSKKLLLTTDVLNEGVHFLRSYIPEAVGWKAISVNVSDVIANGGLPKWALISLNLPEDLEVSYVERFYIGVKRACEFYKCEVVGGNISKSEKIGISVFLVGETERFVGRDGARLGDSVFVSGTLGDSRAGLELLLMEKEEYEPFELALIQRHLRPTARIDYVKHIQKYANASMDISDGLVADANHLAQRSGVKIEILSEKLPLSNELKMYCEKYGKNPIEYALFGGEDYQLLFTHPKERWNPFLDMTEIGRVEEGEGVFVDGKKVEPKGWKHF | soluble
8 | MTFYDHLHASPYTWERVGNLLADATAADVERSLAYRRRTIQDFITLISPAAIPYLEQMARQAHALTVERFGHTMQLYIPLYLSNICSNACVYCGFSRSNKIHRRRLTAEEVDREAEAILRLGYKHLLLVSGESEKATPASYYEKMTRRLRPLFSQLSLEVQPLTTEEYARLHEAGIGAVYVYQETYNEQAYPTYHPAGRKADYRYRLETPDRIGRANMQKIGIGALLGLENWRVDSVFTALHLRYLEQTYWKSKFSISLPRLRPATGGWEPKDPIDDVGMVQLITAFRLLDKDVEISLSTRESREFRDHVMPLGITSVSAGSKTEPGGYAEENADLEQFAINDARSPAEMAADLRRLGYEPVWKDWDAFM | not soluble
9 | MGSDKIHHHHHHMKSEDNGESWSDTYFLTHGEKWHSSACNVLFSNGNVYLAMEQRCRLNEVTGWDVAGLSPTLFRACVEDNLCLASSWSRSEKFIYKEVFDGAKLDFFGIPFYDCETNKPKEIATGINNAPLGWLEANVVKFVDKDHIWHTDLKEVFHLFLRAHTGGVNYAHLFKIEIQDDQSMIPSLEHTPSGQKISYIPFPGGHLKFFIIYDELTRFYWLVSNQATDSMRRVSSLSNIKRYGLPNNERHRLQLHFSRNCVDWCFAGMVACSTNELYSRNYPSAVIKGDDLHIVCRSADEHALNPQYNNMITHHIVSNFRQLIY | not soluble
10 | MANVGGRRKPAADARLEVIQKLFPEAVVDGGIDWELLKRVFGGHERQEAYEFTWPGKAEARRLAELPASGVLRPDQAASKQWETTNNWYIEGDNLEALKLLRTSHAGTIQMIYIDPPYNTGKVLTYKDNWRKGKAVVPSGIQEEARGHVGWLNMMYPRLWVARELLAETGAIFISIDDTEQANLRKMCDEIFGERNFVATFIWQRAFSPVNMNKFASRNHDFILCYAKNIDRLAWYGLPRHPEADVRYANPDNDPRGPWMSGDLSVGPPIPEKIYEIVTPSGRVVSPPNGYCWRVTKERFAELAADNRIWFGKDGNGVPRLKRFLSEVKSTVTPLTIWTHDEVSHSQEAKKELKELFDGLAVMDYPKPVKLIQRMVALTTRDDDPILDFFSGSATTAHAVMQQNAEDGGRRSFIMVQLPERLAETSEAYRVGFRTICDIGRERIRRAGEKIVYETGKTELDIGFKVFRIERTNQPAR | not soluble
11 | MGSDKIHHHHHHMSQMHQQLINEYTRTRLNEEAVSIERIYFYKTDKRVNPKQEEPFWHAAGDIPILVSAPHAVRHFRQKKIKMSDEYTGSIVYLLNKLTGCHAIAVTKLYGGDPNVDSPCIYKEKLAQLCRQGKIKLLLDIHGAARDRDFDVDFGTNNRRNLLEKMHTDEILAQNFRNCGFSKISSDYFAASSPNTIANFAARELGIPAVQIEINKHYRVPAQNPQGFHRLMAALVESINSVGRRYQEGWKDINRERKIR | not soluble
12 | MGSDKIHHHHHHMKVLHIFPSAFLGGSELCAIESIESLQKTGVENHVILPAEGAVINRLENLSVSYKIIQHNWWMSSKPWKTYLKVFMLKGFYSSAASIREYIKNNGIDVVITHSIVIPSGALGARLTNTPHVWYLHEYGDLDHQLKFEYGKSFSLNLINKLSKKIIVNSDALKKHFSKKLPAAKINRLYYSVNYPEFTPLTEKPSGELLLCMVGRIAKGKNQLVALKALALLKQEQIFPQLVFVGGADPDYLKLLEAYIKTHELEKQIAFAGQTDRPWDFVMRSQAVVVGSAMEAFGRVTVEAMKAGRIPIVSDTGAGPELITHNENGFLFDPEKEKQLAEIIKQIWLGTDFTEMTVQAKQYALAHFNSKLHGHELLKILTGLV | not soluble
13 | MNTSSSADPKPDASLSSSNSKIKKEEDLEAMKEAIAQLLQGVEELTQDKLNDAKSRKKLEESMEELKSQNLDLKAQLDFQMAHFQSLFEAHEKEIADLKARQYQNNSIAAQTPPPDVRQELRSFPMVKHSRENPELRNVPVLIFSRCMLCETDEHTIHSCPIYNTNSKRYEGFKDKGLCRSCALPANSDGSATCGRNCMFSRRRCTNCWDKGGDKSYVYHLEFTCRWDERRSQRTSPFSTDHSDRSSKHPRISFDECENHHY | not soluble
14 | MNFSIRVILLLTGFVSLAFSAPKFLTISDIHYGAENIAKDGQDTGKEFLDVTFKRFEELSQNVDFILHLGDLPTHSLFSIPKKEEYEQVVFHGLHEANPGQKPMFYITGNNDSLLGNYQPFSSDNKSPLNLALDWDGACAYCDGLIIDDTHMRKDGYYSSYVIPNNKEIILIALNSVQWTKTPVFLPKYPNQQRDAFVQLFWLEQQLKNHRAKQLLLAMHVPPGTAYNGNRFWHDIYLDRFLTLLDKYHQSYDQITILFSHSHMEEFRKIRLSDGSTIYAFSTPGISRAHHNNPGMKIFDLDKQMRVRNSTTYYTSDLYEWGNEYYQAMNTPDAIFPNCQNKTIPQCLDTLSPEQVCNNLEVGLFYGVKSTRVPYQGCIKTYQINLEHHHHHH | not soluble
15 | MSLDHSRDQARRNIAVHYDLSNDLFAAFLDETMTYSCAMFTDLLAQPTPAWTELAAAQRRKIDRLLDVAGVQQGSHVLEIGTGWGELCIRAAARGAHIRSVTLSVEQQRLARQRVAAAGFGHRVEIDLCDYRDVDGQYDSVVSVEMIEAVGYRSWPRYFAALEQLVRPGGPVAIQAITMPHHRMLATRHTQTWIQKYIFPGGLLPSTQAIIDITGQHTGLRIVDAASLRPHYAETLRLWRERFMQRRDGLAHLGFDEVFARMWELYLAYSEAGFRSGYLDVYQWTLIREGPEGHHHHHH | not soluble
16 | MALSKRELDELKPWIEKTVKRVLGFSEPTVVTAALNCVGKGMDKKKAADHLKPFLDDSTLRFVDKLFEAVEEGRSSRHS | soluble
17 | MAHHHHHHMVLIKAKNNEGKTVGEGKFSPFCFVLYGDIQYGMIRANHGWYEERKLLKEAITKTNKIKPSFVVAMGDLANKFPIDELQNEQYKDLKTDFEQLDKSIDLYVFCGNHDVGNEPTHETISNFEHFWGDSYYSYIYNNCGFIILNSAVFFNDTQVQDLKEKQFLWLDETLKKMVSKNVKHKFLFLHHALMYDHIEEDENIGLIYGDKFRNYSEKNKFHIKKETRMVIYDMLKKYKVSHVFCAHLHANREKNIDANIKQITISAVGMQAASDQSGLMIVQVAEEGVDYKYYPFEFVPSFVKV | not soluble
